Measured values: the supplement of paper PMC6757056
± gives the standard deviation of the averaged measurements.

B1: library; a variant is named by its letters at N, in order (parent)
chain: GCUGUCACCGAGAAACUGUGAAGUAUAUCUUAAACCUGGGCACUUAAAAGAUAUAUGGAGUUAGUAGUGCAACCUGCUCGGUCUGAUGAGUCCNNNNNNGGACGAAACAGC

Assays:
cyclic di-GMP [1] = variants of: B1; assay: FACS-Seq fitted mean relative fluorescence mCherry/BFP without ligand (log10 relative fluorescence); HEK293T; ligand: cyclic di-GMP (c-di-GMP-II aptamer); higher = higher reporter protein expression; conditions: ligand present: no
Description: (§1)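 Hammerhead (sTRSV) ribozyme switch libraries with a ligand aptamer grafted on stem I and a randomized N4-6 loop II, cloned into the 3' UTR of mCherry and transiently transfected into HEK293T cells; RNA-Seq 72 h post transfection with ligand added 1 h before transfection; RNA read count / plasmid DNA read count normalized to the non-cleaving sTRSVctl (x100), log10; sequences with >100 DNA reads. FACS-Seq: lentiviral library sorted into 6 bins after 48 h ligand, log-normal fit mean of mCherry/BFP scaled to controls. Printed sequences are partial switch sequences.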

cyclic di-GMP [2] = variants of: B1; assay: normalized RNA/DNA level without ligand (relative to sTRSVctl = 100) (log10 (% of sTRSVctl)); HEK293T; ligand: cyclic di-GMP (c-di-GMP-II aptamer); higher = less ribozyme self-cleavage, higher mRNA level; conditions: reporter: mCherry (pCS4076), ligand present: no
Description: as §1

cyclic di-GMP [3] = variants of: B1; assay: FACS-Seq fitted mean relative fluorescence mCherry/BFP with ligand (log10 relative fluorescence); HEK293T; ligand: cyclic di-GMP (c-di-GMP-II aptamer); ligand concentration (+) FACS-Seq: 1 mM; higher = higher reporter protein expression; conditions: ligand present: yes
Description: as §1

cyclic di-GMP [4] = variants of: B1; assay: normalized RNA/DNA level with ligand (relative to sTRSVctl = 100) (log10 (% of sTRSVctl)); HEK293T; ligand: cyclic di-GMP (c-di-GMP-II aptamer); ligand concentration (+) RNA-Seq: 1 mM; higher = less ribozyme self-cleavage, higher mRNA level; conditions: reporter: mCherry (pCS4076), ligand present: yes
Description: as §1

| Variant | FACS-Seq fitted mean (log10) (cyclic di-GMP [1]) | normalized RNA/DNA level without ligand (log10) (cyclic di-GMP [2]) | FACS-Seq fitted mean (log10) (cyclic di-GMP [3]) | normalized RNA/DNA level with ligand (log10) (cyclic di-GMP [4]) |
| --- | --- | --- | --- | --- |
| GCUGUCACCGAGAAACUGUGAAGUAUAUCUUAAACCUGGGCACUUAAAAGAUAUAUGGAGUUAGUAGUGCAACCUGCUCGGUCUGAUGAGUCCAUAAAGGGACGAAACAGC [AUAAAG] | -0.485 ± 0.024 | 1.56 ± 0.038 | -0.249 ± 0.071 | 1.73 ± 0.14 |
| GCUGUCACCGAGAAACUGUGAAGUAUAUCUUAAACCUGGGCACUUAAAAGAUAUAUGGAGUUAGUAGUGCAACCUGCUCGGUCUGAUGAGUCCAUUUAAGGACGAAACAGC [AUUUAA] | -0.437 ± 0.065 | 1.58 ± 0.074 | -0.0871 ± 0.058 | 1.75 ± 0.078 |
| GCUGUCACCGAGAAACUGUGAAGUAUAUCUUAAACCUGGGCACUUAAAAGAUAUAUGGAGUUAGUAGUGCAACCUGCUCGGUCUGAUGAGUCCAAAGAUGGACGAAACAGC [AAAGAU] | 0.0924 ± 0.13 | 1.52 ± 0.037 | 0.367 ± 0.016 | 1.71 ± 0.17 |
| GCUGUCACCGAGAAACUGUGAAGUAUAUCUUAAACCUGGGCACUUAAAAGAUAUAUGGAGUUAGUAGUGCAACCUGCUCGGUCUGAUGAGUCCCAAGUAGGACGAAACAGC [CAAGUA] | -0.495 ± 0.0052 | 1.46 ± 0.13 | -0.203 ± 0.02 | 1.63 ± 0.07 |
| GCUGUCACCGAGAAACUGUGAAGUAUAUCUUAAACCUGGGCACUUAAAAGAUAUAUGGAGUUAGUAGUGCAACCUGCUCGGUCUGAUGAGUCCGACCUGGGACGAAACAGC [GACCUG] | -0.44 ± 0.12 | 1.66 ± 0.022 | -0.213 ± 0.13 | 1.81 ± 0.11 |
| GCUGUCACCGAGAAACUGUGAAGUAUAUCUUAAACCUGGGCACUUAAAAGAUAUAUGGAGUUAGUAGUGCAACCUGCUCGGUCUGAUGAGUCCAAAAGGGGACGAAACAGC [AAAAGG] | -0.489 ± 0.057 | 1.49 ± 0.12 | -0.254 ± 0.005 | 1.66 ± 0.093 |
| GCUGUCACCGAGAAACUGUGAAGUAUAUCUUAAACCUGGGCACUUAAAAGAUAUAUGGAGUUAGUAGUGCAACCUGCUCGGUCUGAUGAGUCCCUUUCCGGACGAAACAGC [CUUUCC] | 0.0673 ± 0.015 | 1.82 ± 0.038 | 0.163 ± 0.01 | 1.93 ± 0.11 |
| GCUGUCACCGAGAAACUGUGAAGUAUAUCUUAAACCUGGGCACUUAAAAGAUAUAUGGAGUUAGUAGUGCAACCUGCUCGGUCUGAUGAGUCCGUUAUAGGACGAAACAGC [GUUAUA] | -0.123 ± 0.14 | 1.59 ± 0.042 | 0.169 ± 0.14 | 1.75 ± 0.071 |
| GCUGUCACCGAGAAACUGUGAAGUAUAUCUUAAACCUGGGCACUUAAAAGAUAUAUGGAGUUAGUAGUGCAACCUGCUCGGUCUGAUGAGUCCAUCUACGGACGAAACAGC [AUCUAC] | -0.188 ± 0.047 | 1.7235 ± 0.00012 | 0.162 ± 0.094 | 1.81 ± 0.12 |
| GCUGUCACCGAGAAACUGUGAAGUAUAUCUUAAACCUGGGCACUUAAAAGAUAUAUGGAGUUAGUAGUGCAACCUGCUCGGUCUGAUGAGUCCCGUGGAGGACGAAACAGC [CGUGGA] | -0.426 ± 0.029 | 1.41 ± 0.1 | -0.0424 ± 0.071 | 1.62 ± 0.035 |
| GCUGUCACCGAGAAACUGUGAAGUAUAUCUUAAACCUGGGCACUUAAAAGAUAUAUGGAGUUAGUAGUGCAACCUGCUCGGUCUGAUGAGUCCAAGCGAGGACGAAACAGC [AAGCGA] | -0.459 ± 0.0051 | 1.44 ± 0.1 | -0.202 ± 0.029 | 1.65 ± 0.13 |
| GCUGUCACCGAGAAACUGUGAAGUAUAUCUUAAACCUGGGCACUUAAAAGAUAUAUGGAGUUAGUAGUGCAACCUGCUCGGUCUGAUGAGUCCGAUUGAGGACGAAACAGC [GAUUGA] | 0.00942 ± 0.089 | 1.5 ± 0.084 | 0.252 ± 0.042 | 1.7 ± 0.072 |
| GCUGUCACCGAGAAACUGUGAAGUAUAUCUUAAACCUGGGCACUUAAAAGAUAUAUGGAGUUAGUAGUGCAACCUGCUCGGUCUGAUGAGUCCCGAGAAGGACGAAACAGC [CGAGAA] | 0.00961 ± 0.085 | 1.35 ± 0.15 | 0.126 ± 0.031 | 1.55 ± 0.037 |
